Reference: EP4592321A1 (Biotheus Inc., dated 2025)
Numbering of substitutions follows the chain as printed.

B1: Anti-HER2(NO3-02) (antibody, human IgG1, kappa, V domains shown)
VH: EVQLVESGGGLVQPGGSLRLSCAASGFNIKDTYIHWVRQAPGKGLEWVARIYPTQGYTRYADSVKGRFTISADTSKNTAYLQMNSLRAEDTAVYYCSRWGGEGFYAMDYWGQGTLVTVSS
VL: DIQMTQSPSSLSASVGDRVTITCRASQNVQGAVAWYQQKPGKAPKLLIYSASFLYSGVPSRFSGSRSGTDFTLTISSLQPEDFATYYCQQHYSTPPTFGQGTKVEIKR
notes: also called optimized Anti-HER2 antibody
B2: Anti-HER2(NO3-46) (antibody, human IgG1, kappa, V domains shown)
VH: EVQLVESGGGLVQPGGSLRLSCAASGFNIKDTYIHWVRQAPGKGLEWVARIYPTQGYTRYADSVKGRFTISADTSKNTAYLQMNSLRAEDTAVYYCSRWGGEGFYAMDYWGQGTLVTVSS
VL: B1 VL with N28S, Y92S, S93T
notes: as for B1
B3: Anti-HER2(NO3-36) (antibody, human IgG1, kappa, V domains shown)
VH: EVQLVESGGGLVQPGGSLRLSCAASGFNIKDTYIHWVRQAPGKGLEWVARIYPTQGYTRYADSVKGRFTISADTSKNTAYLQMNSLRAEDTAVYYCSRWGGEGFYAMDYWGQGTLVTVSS
VL: B1 VL with Q27N, N28Y, G31T, Y92F, S93M
notes: as for B1
B4: Anti-HER2(NO3-02)_single arm (antibody, human IgG1, kappa)
heavy: not shown
light: DIQMTQSPSSLSASVGDRVTITCRASQNVQGAVAWYQQKPGKAPKLLIYSASFLYSGVPSRFSGSRSGTDFTLTISSLQPEDFATYYCQQHYSTPPTFGQGTKVEIKRTVAAPSVFIFPPSDEQLKSGTASVVCLLNNFYPREAKVQWKVDNALQSGNSQESVTEQDSKDSTYSLSSTLTLSKADYEKHKVYACEVTHQGLSSPVTKSFNRGEC
chain: not shown
notes: also called Anti-HER2 single-arm antibody
B5: Anti-HER2(NO3-46)_single arm (antibody, human IgG1, kappa)
heavy: not shown
light: B4 light with N28S, Y92S, S93T
chain: not shown
notes: as for B4
B6: Anti-HER2(NO3-36)_single arm (antibody, human IgG1, kappa)
heavy: not shown
light: B4 light with Q27N, N28Y, G31T, Y92F, S93M
chain: not shown
notes: as for B4

What follows are binders tested against T1, HER2 expressed on human gastric cancer cell N87 (human, UniProt P04626 23-1255) (assay: flow cytometry on N87 cells, MFI, anti-human IgG-Fc PE).
T1 construct: whole, on cells; N87 cells are described as self-expressing HER2; also called human HER2 on N87 cells; HER2 antigen on N87

Binding result, binds:
B1
B2
B3
B4
B5
B6

Each binder was assayed against T2, human HER2 antigen (purchased from AcroBiosystems) (human, UniProt P04626 23-652) (assay: BLI (ForteBio), antibody on AHQ sensor, 100 nM HER2, 1:1 model).
T2 construct: Bought soluble antigen used at 100 nM in BLI; also called human HER2 protein; HER2 protein

Binding result, binds:
B1
B3
B4
B5
B6

These binders were tested against T2, human HER2 antigen (purchased from …) (assay: BLI (ForteBio), antibody before and after 2 and 4 weeks at 40 C on AHQ sensor, 100 nM human HER2).

Binding result, binds:
B2
